Columns and labels:
[1] = surface biotinylation, pull-down, western, COS-7; settings: glycan lost; control: WT Vstm5
[2] = western blot of total lysate, COS-7; settings: glycan lost; control: WT Vstm5
[3] = immunofluorescence with ER marker PDI, COS-7; settings: glycan lost

Protein	localisation_or_trafficking, fold_change [1]	expression_or_secretion [2]	localisation_or_trafficking ([3]; control: WT Vstm5)	localisation_or_trafficking ([3]; control: DMSO-treated)
V-set and transmembrane domain-containing protein 5 (Vstm5): N43,87,101,108A (protein) parent chain: MRPLRCGERTQGIPLGLLAFWVTAARCLQSQGVSLYIPQSAINATVQQDILLSVDYICHGVPTIEWKYTPNWGVQRIVEWKPGTPANVSQSHRDRVCTFDNGSIQLFNVSVKDSGYYIVTVTEHPGSSQSGTILLRVSEIRYEDLHFVAVFFALLAAVAVVLISLMWVCNQCAYKFQRKRRYKLKESTTEEIEMKEVEC	decreases	no change	changes	–
V-set and transmembrane domain-containing protein 5 (Vstm5): N43A (protein) parent chain: MRPLRCGERTQGIPLGLLAFWVTAARCLQSQGVSLYIPQSAINATVQQDILLSVDYICHGVPTIEWKYTPNWGVQRIVEWKPGTPANVSQSHRDRVCTFDNGSIQLFNVSVKDSGYYIVTVTEHPGSSQSGTILLRVSEIRYEDLHFVAVFFALLAAVAVVLISLMWVCNQCAYKFQRKRRYKLKESTTEEIEMKEVEC	decreases	no change	–	–
V-set and transmembrane domain-containing protein 5 (Vstm5): N87A (protein) parent chain: MRPLRCGERTQGIPLGLLAFWVTAARCLQSQGVSLYIPQSAINATVQQDILLSVDYICHGVPTIEWKYTPNWGVQRIVEWKPGTPANVSQSHRDRVCTFDNGSIQLFNVSVKDSGYYIVTVTEHPGSSQSGTILLRVSEIRYEDLHFVAVFFALLAAVAVVLISLMWVCNQCAYKFQRKRRYKLKESTTEEIEMKEVEC	increases	no change	–	–
V-set and transmembrane domain-containing protein 5 (Vstm5): N101A (protein) parent chain: MRPLRCGERTQGIPLGLLAFWVTAARCLQSQGVSLYIPQSAINATVQQDILLSVDYICHGVPTIEWKYTPNWGVQRIVEWKPGTPANVSQSHRDRVCTFDNGSIQLFNVSVKDSGYYIVTVTEHPGSSQSGTILLRVSEIRYEDLHFVAVFFALLAAVAVVLISLMWVCNQCAYKFQRKRRYKLKESTTEEIEMKEVEC	decreases	no change	–	–
V-set and transmembrane domain-containing protein 5 (Vstm5): N108A (protein) parent chain: MRPLRCGERTQGIPLGLLAFWVTAARCLQSQGVSLYIPQSAINATVQQDILLSVDYICHGVPTIEWKYTPNWGVQRIVEWKPGTPANVSQSHRDRVCTFDNGSIQLFNVSVKDSGYYIVTVTEHPGSSQSGTILLRVSEIRYEDLHFVAVFFALLAAVAVVLISLMWVCNQCAYKFQRKRRYKLKESTTEEIEMKEVEC	increases	no change	–	–
V-set and transmembrane domain-containing protein 5 (Vstm5): N43,87A (protein) parent chain: MRPLRCGERTQGIPLGLLAFWVTAARCLQSQGVSLYIPQSAINATVQQDILLSVDYICHGVPTIEWKYTPNWGVQRIVEWKPGTPANVSQSHRDRVCTFDNGSIQLFNVSVKDSGYYIVTVTEHPGSSQSGTILLRVSEIRYEDLHFVAVFFALLAAVAVVLISLMWVCNQCAYKFQRKRRYKLKESTTEEIEMKEVEC	decreases	no change	–	–
V-set and transmembrane domain-containing protein 5 (Vstm5): N101,108A (protein) parent chain: MRPLRCGERTQGIPLGLLAFWVTAARCLQSQGVSLYIPQSAINATVQQDILLSVDYICHGVPTIEWKYTPNWGVQRIVEWKPGTPANVSQSHRDRVCTFDNGSIQLFNVSVKDSGYYIVTVTEHPGSSQSGTILLRVSEIRYEDLHFVAVFFALLAAVAVVLISLMWVCNQCAYKFQRKRRYKLKESTTEEIEMKEVEC	no change	no change	–	–
V-set and transmembrane domain-containing protein 5 (Vstm5): N87,101,108A (protein) parent chain: MRPLRCGERTQGIPLGLLAFWVTAARCLQSQGVSLYIPQSAINATVQQDILLSVDYICHGVPTIEWKYTPNWGVQRIVEWKPGTPANVSQSHRDRVCTFDNGSIQLFNVSVKDSGYYIVTVTEHPGSSQSGTILLRVSEIRYEDLHFVAVFFALLAAVAVVLISLMWVCNQCAYKFQRKRRYKLKESTTEEIEMKEVEC	decreases	no change	–	–
V-set and transmembrane domain-containing protein 5 (Vstm5): tunicamycin (protein) parent chain: MRPLRCGERTQGIPLGLLAFWVTAARCLQSQGVSLYIPQSAINATVQQDILLSVDYICHGVPTIEWKYTPNWGVQRIVEWKPGTPANVSQSHRDRVCTFDNGSIQLFNVSVKDSGYYIVTVTEHPGSSQSGTILLRVSEIRYEDLHFVAVFFALLAAVAVVLISLMWVCNQCAYKFQRKRRYKLKESTTEEIEMKEVEC	–	–	–	changes

From PMC5528877
